# Measured values reported in the DeepSol protein solubility set.
# Assay: soluble on expression in E. coli; label from the status in PepcDB or PDB records
row,Sequence,soluble on expression in E. coli
1,MNASQPPPGGRLPDEVFRKITAVDQGQSTLTQSGIQGLSARTLSSEPRGDLVFQLVEIIKKPGQSLGLYLREGNGKDRSDGVFVSRFGDNSELAKYGEVMRPGDEILTINNVEVSMMSIDDVVLILSIPRRLLLRIRYSKSMRHEIISSRSRESERPVVVFHKYDDRRDSETNAPILSQPTSTANTWLGKKSRQQMEEMRNATTSSTLRTHASTSSPRNHFAPRLVNGHSHSIGVPSASTTSHDHQYQRFASEPSDSVSRTARVPPPRLASATVRRTESFNSAPGVSTSAPMYTLPRSSTAVPPPDILGSIPYSARDPLMRSSADLPYDPMTGRLSSSVPTDPLLSRSLCSPILPRTLRQANDSNKSNSLPRRRIMTGGRNVKWRNDVVSTSDLCGEESDGAISAPEYSSPPFSRLTQQQQFRLSNGSPGRTVNDIFSAAEYRNWAGPYDPRGMYGPFPPGQRATRWSHTYGEQRAPRTSSLPGRTVLAQSLVGSPVLPRHPPPIVQDRPSAVFDRYHVSPLMNRRAPLRAAGPGINVDRLSVSSLTGILYVHIVEGRGLKIPEKQKGLTEEMYCVLEVDEQHRARTGVSTIEQKFKWRETFHIDVVNATVSNFFVYSWHPQFRHKLCHKGSLKLLEAFVVDQLNDDRVFALNLEPRGQLIVRIGFHDLQAVFRRTVNPRLNGVFGISLSRLVQRERRDTPIVLTRLIQEIEKRGVDYSGLYVLCGSVEKKKMLRAELESNPLGTELAAESIPDTNVIACLIKDFLRELPEPLISPQIHGMLLEAASVALPNDVQTNRHLVLKIIDCLQLSAKNCLLLVLDHLSTVLCSSPHNGLTPTRLSLIFAPLLFFCLDTFSPYTISPTSKMAAVRTLDINQASSSLQMILSIWPSRVSELVEFFPFLLNYPTVSYSSPNPHSESGSDSPATTCQKGGVIAYVSESQC,not soluble
2,MNTTDRQITFSALSCLLSYPDEEWRAELPDWKALIQEIGNRQIREKLLHFFETSASYSPEALIEHYVYTFDFGKKTNMYVTYFNSGEQRERGIELLHLKNTYEQSGFLPTEKELPDYLPLMLEFAAAAEIEAARSVFEKYLSNVRELASRLEKNDSIYAELLHVLLAALENIGVRESVEGAVQALEHHHHHH,not soluble
3,MAHHHHHHMRRQTRLFSRLAVEIPNSHWLPRRLLLVRHGESEANVDRSQYSRIPDWKIPLTERGRAQALDCGRRLRNIIKNEKLYIYYSPYVRTQQTLAEVRKSLEESQVQGEREDERLREQEIGNFQPLDKMDRTWDERSNFGRSYYRFPDGESSVDVGDRVSTFFDSLFRERLELYSLSAGDPEDEDGPLNVPGEDDQNVLIISHGLLIRLFIARWFRVPLEAFETMRNPPNCSIVVLERQESARMVMTDISKKLFGSDPLLEMMKFDGKDSTKRYRHMFFSDHSGSFTPAEGV,not soluble
4,MKVKTQFVCNQCAAIFKQWAGQCTQCGAWNSIVEEGIMPENKTLRSGQWANQRSVITAVEDVVMDKIVRMDCGISELNRVLGGGLVYGSVVLIGGDPGIGKSTLLLQTLANLSMQETVLYVTGEESLQQVAMRAQRLGLPLAGLRLLAETQVESIIAQAQKEKPRIIVVDSVQTIFTEAISSAPGGVSQVRESAAQLVRYAKMTNTAIFLVGHVTKEGTLAGPRVLEHMVDSVLYFEGQNDSRFRVIRAIKNRFGAVNELGVFAMTDKGLKEVANPSAIFLSRQPEPTPGSAVMVTWEGSRPMLVEVQALVDEAHGQQAKRVTAGLEHNRLAILLAVLHRHGGIATYDQDVFINVVGGVKVTETASDLALLAAVISSLRNRIFDSETIIFGEVGLAGEIRPVQSGQERIKEAIKHGFKRAIVPFANAPKQQIDSMTVEPVKHLRDVLEKM,not soluble
5,MSETKNITVPEINKTVEQMLIKGRWLDALDFWINNTDSLVLIRWLAQFISQLSPEEDSLLLQSIVRWKEGDDEQRWEIFRHAESVGFSTQTGALGVSLFVSQGSLSPAPYDPVYAPSCSEKKIIYGILMHQSNKYYDAPDEGVFFLFRHWCNSHS,not soluble
6,MSLRTGKTNVIALVLSVDEELMGFTSQMVFGITEVLSTTQYHLVVTPHIHAKDSMVPIRYILETGSADGVIISKIEPNDPRVRFMTERNMPFVTHGRSDMGIEHAFHDFDNEAYAYEAVERLAQCGRKRIAVIVPPSRFSFHDHARKGFNRGIRDFGLTEFPIDAVTIETPLEKIRDFGQRLMQSSDRPDGIVSISGSSTIALVAGFEAAGVKIGEDVDIVSKQSAEFLNWIKPQIHTVNEDIKLAGRELAKALLARINGEAAETLQSISGPVWSSMAPKEGHHHHHH,soluble
7,MSSDRSGAAAKASAGQCSSDRPLAVAADPKQYSMALCPDTPSYSLCGRLKSEWDKQSAAASPGPAAYDVPGYFDTLDPQQQQRHLWSGPVPGVHLGIRTVLPESREKAGVPGPGAYQLVRFGDELPRAREPLITRSSRRGRGAAADTPGPGAYDDPTSIAYRADQVRRKRLFTQCSTFGGRWCRREFHTAGPGPAAYNTLVATKLLEKNQRHAPRLVRRQPPLDRQSVAEAAAARMKVSGPPNPQAFPTLPSDFDFDFRKGKTIGGKPHEPLARTAPSHLTQAADDKPSGSRAFWESPPPPGGRFAATPFDPQSHSLAAEKAGTNAARLAEAGNCKPGPGSYNVEVDPTARRVPASLFGRTLSAKSVSVENGVPGPGHYRVVDDTSGRGTIFYKGDFHPRGCSGQGGSAAESLGVGPGAHYNDDTMYSNSINGDRAHNKGFTMGIRYPARATYQHCAPYDETTNINCVYDDELNWVVRPNQHLPLIRRGKL,not soluble
8,MGSDKIHHHHHHMKQFWNWKNYQIAWQVEETSNDSGIAIVLIHGFGACKEHWRFNQKTISSIAPCYALDLIGFGDSSKPNSQIPYEKKTYQNFNYCFDNWSQLVYDFCNEIVKKPVLLIGNSIGGVIALNTSKKLSQKALGVILIDCAQRTMDDKRLAEQSLLMRFLRPVIKTFVRQRLLSSNIFNIAAQPKFIAKILKVAYPSRNNVDEELIDTLFKPTQSKGAPEAFRGFINLFDDYLAPNLLKEMNTSVHLIWGEKDPWEPVKEAQKWFKTFECIKSLDVISDAGHCPHDEMPEKVNPILIKIIQEAI,not soluble
9,ECPVFEPSWAEFRDPLGYIAKIRPIAEKSGICKIRPPADWQPPFAVEVDNFRFTPRIQRLNEL,not soluble
10,MCENTLAQQKTEEFAPVSDLRAEAYGSTVFLHWTPPYDNPMIPLSESFESGIPAIWKTIDADGDGYNWMHLTNFTGQSGLCVSSASYIGGVGALTPDNYLITPELKLPTDALVEIIYWVCTQDLTAPSEHYAVYSSSTGNNAADFVNLLYEETLTAKRIQSPELIRGNRTQGVWYQRKVVLPNDTKYVAFRHFNSTDNFWLNLDEVSILYTPLPRRAPCPHPGGYTYSVFRDGQKIASGLSALAYIDTDVPYGTQDYCVQVNYLQGDSYKVCKNIVVANSANIYGADKPFALTVVGKTIVASAFKGEITLYDIRGRLIASGCDTLRYKAENGFYLIKIQVNGTVYTEKIQIQ,not soluble
11,AQGQRRAPLSVVFTEPQVASVGLSLRQIEDLYADQDAANYVVGQVSFEGQGRSRVMGKNKGLLNVYADRTSGEFLGAEMFGPAAEHIGHLLAWARQQQMTVQAMLTMPFYHPVIEEGLRTALRDAQQKLAIEKHDMNEFIMTHDNAMKLVI,not soluble
12,MSEKDFVQVAKLGKTVGLKGYVKLHNLSDFSSQFKKDATFFIKNTKEMLKIKHYNANNSTVLFENYEDIEKAKELTNLILFQSIEKSRQTCKLKKDEFFYFDILECEVFEEDKRLGKVVDILETGASYLFEIQSDEKWVEKKYPKIFFIPYLDKFVKNIDIEKRQIFCTQDAFLILENSLEHHHHHH,soluble
13,MALNNFLTFQLLLLLLRVSSESPWIVAGDVSRIPINFLELAKSPEVFDSMVRIRRKIHENPELGYEEFETSKFIRSELDLIGVKYRFPVAITGIIGYIGTGEPPFVALRADMDALPIQEAVEWEHKSKNPGKMHACGHDGHVAMLLGAAKILQQHRQHLQGTVVLIFQPAEEGLSGAKMMREEGALKNVEAIFGIHLSPRTPFGKAASLAGSFMAGAGAFEAVITGKGGHAAIPQHTIDPVVAASSIVLSLQHLVSRETDPSDSKVVTVTKVNGGNAFNVIPDSITIGGTLRAFTGFTQLQERIKEIITKQAAVHRCNASVNLAPNGNQPMPPTVNNMDLYKKFKKVVRDLLGQEAFVEAVPEMGSEDFSYFAETIPGHFSLLGMQDETQGYASSHSPHYRINEDVLPYGAAIHATMAVQYLKDKASKGSVSGFHDEL,soluble
14,MASWSHPQFEKGASLDSPTFGCTDSPVRRERGQKAVFCGLTSIVWLHRKMQDAFFLVVGSRTCAHLLQAAAGVMIFAEPRFGTAVLEEQDLAGLADAHKELDREVAKLLERRPDIRQLFLVGSCPSEVLKLDLDRAAERLSGLHAPHVRVYSYTGSGLDTTFTQGEDTCLAAMVPTLDTTEAAELIVVGALPDVVEDQCLSLLTQLGVGPVRMLPARRSDIEPAVGPNTRFILAQPFLGETTGALERRGAKRIAAPFPFGEEGTTLWLKAVADAYGVSAEKFEAVTAAPRARAKKAIAAHLETLTGKSLFMFPDSQLEIPLARFLARECGMKTTEIATPFLHKAIMAPDLALLPSNTALTEGQDLEAQLDRHEAINPDLTVCGLGLANPLEAKGHATKWAIELVFTPVHFYEQAGDLAGLFSRPLRRRALLNGGAA,soluble
15,MGSDKIHHHHHHMAHIFVYGTLKRGQPNHKVMLDHSHGLAAFRGRGCTVESFPLVIAGEHNIPWLLYLPGKGHCVTGEIYEVDEQMLRFLDDFEDCPSMYQRTALQVQVLEWEGDGDPGDSVQCFVYTTATYAPEWLFLPYHESYDSEGPHGLRYNPRENR,soluble
16,MSTPYVSVIGKITGIHKKEYESDGTTKSVYQGYIEDDTARIRISSFGKQLQDSDVVRIDNARVAQFNGYLSLSVGDSSRIESVNVNIPLEHHHHHH,not soluble
17,MDRHTTEGWRRWAARLGAAAMALLLAACAAPRQQAASVDELPSWNDGPSRTAIVEFVRAVTRSGGPDFVAADERIAVFDNDGTLWSEQPMYFQMLFALDRVKSMAPRHPDWARRQPFKAALQDDHAALAKGGDVALMKIVGATHTDMSTDTFTRSVRYWASTARHPRFDRLYTELTFAPMRELLDYLRAHGFKTYIVSGGETEFMRSWTQQAYGIPPEQVIGSSFVTTYGVRDGEPTLWRHGKLEFNDDGPGKPVAIQRYIGRRPILAFGNSDGDLQMLQWTAAGDGKRFAGLVHHTDAQREWAYDRDSRIGRLDRALDEARRQDWTVVDMKTEWKRVYAFEQP,not soluble
18,GPGSMTVVRAALLGFGTVGQGIYKIVQQRREQLKQKLGGAELVIVKILVRDLRKRSRVLPDGYASDAKLFTNNIEDVFRADVQVIFEATVGEEPAFTYLQRAIVEHGCSVITANKVMFARYGATLQELAASCTPTSSFPATRVYVGFEATVAAGVPIIKTLQNMCHVQQVRKIEGIVNGTSNYILTELREYPEKSFEEVLKKSQELGYAEADPTNDISGHDAFMKLLVMVAIAFGHQPSRSTVPVTGIDTLTPEMLQDARAKGLRYRHVVSAAMEGAATSSCALKSSAAEGEEAQPRTPPLHERLTCSVKPMLLGPEHPLYHMDGTTSAVSVWTDYLGVVTISGPGAGMYCTASAMMEDYAVWMEAFRRP,not soluble
19,MRYAIMVTGPAYGTQQASSALQFAHALLNEGHELASVFFYREGVYNANLLTSPASDEYDLVRVWQKLNTQHGVALNICVAAALRRGIIDETEAGRLELPSANLQPGFTLSGLGALAEASLTCDRVVQF,soluble
